Assay results published in patent US20220088146A1, “Melanocortin Receptor-Specific Peptide Formulations and Methods for Gastrointestinal Tract-Specific Delivery” (Palatin Technologies, Inc., priority 2018, published 2022).
pKi: −log10 of the molar value. Bridge positions count the residues as written; N and C are the ends. Square brackets hold non-standard residues; d marks the D form. dPhe(3-Cl) = N[C@H](Cc1cccc(Cl)c1)C(=O)O; dPhe(4-Cl) = N[C@H](Cc1ccc(Cl)cc1)C(=O)O; dPhe(4-Me) = Cc1ccc(C[C@@H](N)C(=O)O)cc1; dPhe(2-Cl) = N[C@H](Cc1ccccc1Cl)C(=O)O; dPhe(4-F) = N[C@H](Cc1ccc(F)cc1)C(=O)O; dPhe(2-F) = N[C@H](Cc1ccccc1F)C(=O)O; Nle = CCCC[C@H](N)C(=O)O; Orn = NCCC[C@H](N)C(=O)O; Dab = NCC[C@H](N)C(=O)O

Experiments:
[1] = target: human melanocortin-1 receptor (human) (UniProt Q01726); test: cell-based or functional assay
Chain of human melanocortin-1 receptor (human) (Q01726 whole entry): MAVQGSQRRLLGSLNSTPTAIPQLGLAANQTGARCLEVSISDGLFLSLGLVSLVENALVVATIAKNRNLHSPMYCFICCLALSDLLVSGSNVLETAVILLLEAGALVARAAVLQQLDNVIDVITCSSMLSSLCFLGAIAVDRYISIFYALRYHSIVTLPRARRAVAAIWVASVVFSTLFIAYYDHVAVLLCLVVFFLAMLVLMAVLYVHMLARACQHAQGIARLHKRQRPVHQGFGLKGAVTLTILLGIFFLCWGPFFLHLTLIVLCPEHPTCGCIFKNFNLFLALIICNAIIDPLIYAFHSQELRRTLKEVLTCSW

[2] = target: human melanocortin-1 receptor (human) (UniProt Q01726); test: [I125]-NDP-α-MSH competition, hMC1r HEK-293 membranes
[3] = target: human melanocortin-4 receptor (human) (UniProt P32245); test: [I125]-NDP-α-MSH competition, hMC4r HEK-293 membranes
Chain of human melanocortin-4 receptor (human) (P32245 whole entry): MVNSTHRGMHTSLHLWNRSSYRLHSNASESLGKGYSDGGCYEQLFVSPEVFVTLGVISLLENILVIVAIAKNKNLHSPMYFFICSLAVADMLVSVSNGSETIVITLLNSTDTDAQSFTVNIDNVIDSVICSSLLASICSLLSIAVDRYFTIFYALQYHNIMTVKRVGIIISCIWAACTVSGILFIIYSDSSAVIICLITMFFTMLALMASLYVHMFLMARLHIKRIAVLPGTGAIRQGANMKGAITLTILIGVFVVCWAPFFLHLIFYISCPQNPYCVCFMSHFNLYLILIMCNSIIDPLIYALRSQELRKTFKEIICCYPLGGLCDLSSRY

[4] = target: human melanocortin-4 receptor (human) (UniProt P32245); test: cell-based or functional assay
melanocortin-2 receptor = melanocortin-2 receptor (UniProt Q01718); test: cell-based or functional assay
Chain of melanocortin-2 receptor (Q01718 whole entry): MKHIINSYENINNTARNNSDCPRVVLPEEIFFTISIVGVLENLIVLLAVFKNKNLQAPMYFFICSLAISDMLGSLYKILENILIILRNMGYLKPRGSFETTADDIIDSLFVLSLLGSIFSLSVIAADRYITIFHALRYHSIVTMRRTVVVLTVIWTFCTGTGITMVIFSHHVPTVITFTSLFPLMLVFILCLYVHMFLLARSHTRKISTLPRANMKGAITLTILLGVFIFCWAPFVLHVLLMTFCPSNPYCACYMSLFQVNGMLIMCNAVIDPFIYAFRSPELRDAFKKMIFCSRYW

melanocortin-3 receptor = melanocortin-3 receptor (UniProt P41968); test: cell-based or functional assay
Chain of melanocortin-3 receptor (P41968 whole entry): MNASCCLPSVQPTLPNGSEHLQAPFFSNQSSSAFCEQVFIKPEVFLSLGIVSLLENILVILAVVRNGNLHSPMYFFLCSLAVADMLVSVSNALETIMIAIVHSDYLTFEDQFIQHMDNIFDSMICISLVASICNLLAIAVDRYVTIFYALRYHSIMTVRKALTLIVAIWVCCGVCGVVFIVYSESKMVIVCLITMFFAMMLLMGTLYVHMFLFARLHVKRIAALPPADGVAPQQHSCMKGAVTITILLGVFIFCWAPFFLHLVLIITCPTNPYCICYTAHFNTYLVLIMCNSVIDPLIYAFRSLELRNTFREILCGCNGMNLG

melanocortin-5 receptor = melanocortin-5 receptor (UniProt P33032); test: cell-based or functional assay
Chain of melanocortin-5 receptor (P33032 whole entry): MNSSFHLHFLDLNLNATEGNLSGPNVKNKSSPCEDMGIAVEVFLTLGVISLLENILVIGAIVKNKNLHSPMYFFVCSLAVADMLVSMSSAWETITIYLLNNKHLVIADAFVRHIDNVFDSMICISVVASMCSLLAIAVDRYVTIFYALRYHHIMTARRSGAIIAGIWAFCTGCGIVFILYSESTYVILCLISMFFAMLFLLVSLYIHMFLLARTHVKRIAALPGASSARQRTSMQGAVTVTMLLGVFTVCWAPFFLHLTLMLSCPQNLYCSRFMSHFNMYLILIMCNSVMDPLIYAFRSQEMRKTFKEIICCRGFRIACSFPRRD

| MC-1 EC50 (average; cAMP HBL) [1] | MC-1 Emax (average; cAMP HBL) [1] | pKi [2] | pKi [3] | further results | Substance |
| --- | --- | --- | --- | --- | --- |
| 0.008 nM | 73% | 10.00 | 8.70 |  | Ac-Nle-cyclo(Glu-His-D-Phe-Arg-Dab)-D-Nal 1-NH2 (peptide) |
| 0.009 nM | 92% | 10.82 | 6.42 |  | Ac-Nle-cyclo(Dab-His-D-Phe-Arg-Dab)-Trp-NH2 (peptide) |
| 2 nM | 86% | 7.46 | 5.00 |  | Ac-[Nle]E[Orn][dPhe(3-Cl)]R[Dab]-NH2 (lactam 2-6) |
|  | 108% |  | 7.02 |  | Ac-Nle-cyclo(Glu-Lys-D-Phe-Arg-Dab)-Trp-NH2 (peptide) |
| 0.32 nM | 85% | 8.15 | 5.00 | MC-1 EC50 (average; cAM PHBL) [1]: 0.32 nM | Ac-[Nle]EH[dF]R[Dab]-NH2 (lactam 2-6) |
| 0.016 nM | 85% | 10.19 | 6.07 |  | Ac-Nle-cyclo(Dap-His-D-Phe-Arg-Dab)-Trp-NH2 (peptide) |
| 0.008 nM | 108% | 10.30 | 7.01 |  | Ac-Nle-cyclo(Glu-Dab-D-Phe-Arg-Dab)-Trp-NH2 (peptide) |
| 1 nM | 102% | 7.70 | 5.00 |  | Ac-[Nle]E[Orn][dPhe(4-F)]R[Dab]-NH2 (lactam 2-6) |
| 0.076 nM | 96% | 8.52 | 5.00 |  | Ac-[Nle]E[Orn][dPhe(4-Me)]R[Dab]-NH2 (lactam 2-6) |
|  |  | 5.65 | 5.00 |  | Ac-Nle-cyclo(Glu-Pro-D-Phe-Arg-Dab)-NH2 (peptide) |
| 0.5 nM | 102% | 8.40 | 5.44 |  | Ac-[Nle]E[Orn][dF]R[Dab]-NH2 (lactam 2-6) |
| 0.002 nM | 72% | 11.30 | 9.12 |  | Ac-Nle-cyclo(Glu-His-D-Phe-Arg-Dab)-Nal 1-NH2 (peptide) |
| 0.8 nM | 95% | 7.74 | 5.00 |  | Ac-[Nle]E[Orn][dPhe(2-F)]R[Dab]-NH2 (lactam 2-6) |
|  | 86% |  | 6.34 |  | Ac-Nle-cyclo(Glu-Ala-D-Phe-Arg-Dab)-Trp-NH2 (peptide) |
|  | 91% |  | 6.29 | Functional - CEREP (EC50; nM) [4]: 510 nM | Ac-Nle-cyclo(Glu-His-D-Phe-Arg-Dap)-Trp-NH2 (peptide) |
| 0.12 nM | 99% | 8.70 | 5.00 |  | Ac-Nle-cyclo(Glu-Orn-D-Phe(4-OMe)-Arg-Dab)-NH2 (peptide) |
| 44 nM | 73% | 6.19 | 5.00 | MC-1 EC50 (average; cAMPHBL) [1]: 44 nM | Ac-[Nle]EH[dF]A[Dab]-NH2 (lactam 2-6) |
|  | 100% |  | 7.70 |  | Ac-Nle-cyclo(Glu-Arg-D-Phe-Arg-Dab)-Trp-NH2 (peptide) |

| MC-1 EC50 (average; cAMP HBL) [1] | MC-1 Emax (average; cAMP HBL) [1] | pKi [2] | pKi [3] | further results | Substance |
| --- | --- | --- | --- | --- | --- |
|  |  |  |  | Functional - CEREP (EC50; nM) [1]: 980 nM; Functional - CEREP (EC50; nM) [4]: 350 nM; Functional - CEREP (EC50; nM) (melanocortin-2 receptor): 4.8 nM; Functional - CEREP (EC50; nM) (melanocortin-3 receptor): 390 nM; Functional - CEREP (EC50; nM) (melanocortin-5 receptor): 4100 nM | ACTH (adrenocorticotropic hormone) (from UniProt P01189 138-176) (ligand) |
|  | 83% | 11.00 | 8.52 | MC-1 EC50 (average; cAM PHBL) [1]: 0.004 nM | Ac-Nle-cyclo(Glu-His-D-Phe-Arg-Dab)-Nal 2-NH2 (peptide) |
| 0.005 nM | 69% | 10.70 | 10.02 |  | Ac-Nle-cyclo(Glu-His-D-Phe-Arg-Dab)-D-Nal 2-NH2 (peptide) |
| 1 nM | 97% | 7.40 | 5.00 |  | Ac-Nle-cyclo(Glu-Orn-D-Phe(3,4-F)-Arg-Dab)-NH2 (peptide) |
| 1 nM | 88% | 7.52 | 5.00 |  | Ac-[Nle]E[Orn][dPhe(2-Cl)]R[Dab]-NH2 (lactam 2-6) |
|  | 79% | 8.70 | 5.00 |  | Ac-Nle-cyclo(Glu-His-D-Phe-Arg-Dab)-Trp-OH (peptide) |
| 0.1 nM | 100% | 8.70 | 5.91 |  | Ac-[Nle]E[Orn][dPhe(4-Cl)]R[Dab]-NH2 (lactam 2-6) |
| 0.006 nM | 78% | 10.60 | 6.49 |  | Ac-Nle-cyclo(Dab-His-D-Phe-Arg-Dap)-Trp-NH2 (peptide) |
| 0.065 nM | 97% | 9.35 | 7.01 |  | Ac-Nle-cyclo(Glu-Cit-D-Phe-Arg-Dab)-Trp-NH2 (peptide) |
| 0.107 nM | 81% | 9.00 | 5.33 |  | Ac-Nle-cyclo(Glu-His-D-Phe-Arg-Dap)-Trp-OH (peptide) |
| 0.025 nM | 93% | 9.26 | 7.48 |  | Ac-Nle-cyclo(Glu-His-D-Phe-Arg-Dab)-D-Trp-NH2 (peptide) |
| 0.007 nM | 70% | 10.52 | 6.17 |  | Ac-Nle-cyclo(Dap-His-D-Phe-Arg-Dap)-Trp-NH2 (peptide) |
|  | 91% |  | 6.53 |  | Ac-Nle-cyclo(Glu-His-D-Phe-Arg-Orn)-Trp-NH2 (peptide) |
|  | 51% | 5.00 | 5.00 |  | Ac-[Nle]EH[dF][Dab]-NH2 (lactam 2-5) |
| 0.002 nM | 109% | 10.82 | 7.35 |  | Ac-Nle-cyclo(Glu-Orn-D-Phe-Arg-Dab)-Trp-NH2 (peptide) |
|  | 75% |  | 6.27 |  | Ac-D-Phe-cyclo(Glu-His-D-Phe-Arg-Dab)-Trp-NH2 (peptide) |
|  | 95% |  | 6.96 |  | Ac-Nle-cyclo(Glu-His-D-Phe-Arg-Dab)-Trp-NH2 (peptide) |
